The data set is described as follows: total protein half-life in vivo (active degradation + dilution); higher = more stable protein.
Where [1] appears, read: E. coli NCM3722 delta-clpP delta-lon delta-hslV, growth: N-lim chemostat, doubling time 6 h.
[2] abbreviates: E. coli NCM3722 delta-clpP, growth: N-lim chemostat, doubling time 6 h.
Where [3] appears, read: E. coli NCM3722 delta-hslV, growth: N-lim chemostat, doubling time 6 h.
[4] abbreviates: E. coli NCM3722 delta-lon, growth: N-lim chemostat, doubling time 6 h.
[5] abbreviates: E. coli NCM3722 delta-smpB, growth: N-lim chemostat, doubling time 6 h.
Setting [6] is: wild type E. coli NCM3722, growth: C-lim chemostat, doubling time 3 h.
The mark [7] stands for this setting: wild type E. coli NCM3722, growth: C-lim chemostat, doubling time 6 h.
Where [8] appears, read: wild type E. coli NCM3722, growth: C-lim chemostat, doubling time 12 h.
[9] abbreviates: wild type E. coli NCM3722, growth: N-lim chemostat, doubling time 6 h.
[10] abbreviates: wild type E. coli NCM3722, growth: N-lim chemostat, doubling time 12 h.
Setting [11] is: wild type E. coli NCM3722, growth: P-lim chemostat, doubling time 6 h.
[12] abbreviates: wild type E. coli NCM3722, growth: P-lim chemostat, doubling time 12 h.

± gives the standard deviation of the averaged measurements. Some results are limits rather than exact numbers.

With “MAYKHIGVAISGNEEDALLVNKALELARHNDAHLTLIHIDDGLSELYPGIYFPATEDILQLLKNKSDNKLYKLTKNIQWPKTKLRIERGEMPETLLEIMQKEQCDLLVCGHHHSFINRLMPAYRGMINKMSADLLIVPFIDK [P0AAB8]”, the “total protein half-life in vivo” value under setting [1] is 4.18 ± 0.41 h; the “total protein half-life in vivo” value under setting [2] was 3.79 ± 0.29 h; the “total protein half-life in vivo” value under setting [3] stood at 3.73 h; the “total protein half-life in vivo” value under setting [4] amounted to 4.56 ± 0.14 h; the “total protein half-life in vivo” value under setting [5] was 2.7 ± 0.18 h; the “total protein half-life in vivo” value under setting [6] was found to be 2.99 h. Moreover, the “total protein half-life in vivo” value came to 5.49 h under setting [7]; 9.51 ± 0.66 h under setting [8]; 3.69 h under setting [9]; 5.52 ± 0.12 h under setting [10]; 4.66 ± 0.43 h under setting [11]; 10.7 ± 0.12 h under setting [12].

As to “MMQPVINAPEIATAREQQLFNGKNFHVFIYNKTESISGLHQHDYYEFTLVLTGRYFQEINGKRVLLERGDFVFIPLGSHHQSFYEFGATRILNVGISKRFFEQHYLPLLPYCFVASQVYRTNNAFLTYVETVISSLNFRETGLEEFVEMVTFYVINRLRHYREEQVIDDVPQWLKSTVEKMHDKEQFSESALENMVALSAKSQEYLTRATQRYYGKTPMQIINEIRINFAKKQLEMTNYSVTDIAFEAGYSSPSLFIKTFKKLTSFTPKSYRKKLTEFNQ”, the “total protein half-life in vivo” value by setting is: under setting [1], 5.04 ± 0.62 h; under setting [6], 1.18 ± 0.012 h; under setting [7], 1.89 ± 0.2 h; under setting [8], 1.55 h.

With “MGDIMRPIPFEELLTRIFDEYQQQRSIFGIPEQQFYSPVKGKTVSVFGETCATPVGPAAGPHTQLAQNIVTSWLTGGRFIELKTVQILDRLELEKPCIDAEDECFNTEWSTEFTLLKAWDEYLKAWFALHLLEAMFQPSDSGKSFIFNMSVGYNLEGIKQPPMQQFIDNMMDASDHPKFAQYRDTLNKLLQDDAFLARHGLQEKRESLQALPARIPTSMVHGVTLSTMHGCPPHEIEAICRYMLEEKGLNTFVKLNPTLLGYARVREILDVCGFGYIGLKEESFDHDLKLTQALEMLERLMALAKEKSLGFGVKLTNTLGTINNKGALPGEEMYMSGRALFPLSINVAAVLSRAFDGKLPISYSGGASQLTIRDIFDTGIRPITMATDLLKPGGYLRLSACMRELEGSDAWGLDHVDVERLNRLAADALTMEYTQKHWKPEERIEVAEDLPLTDCYVAPCVTACAIKQDIPEYIRLLGEHRYADALELIYQRNALPAITGHICDHQCQYNCTRLDYDSALNIRELKKVALEKGWDEYKQRWHKPAGSGSRHPVAVIGAGPAGLAAGYFLARAGHPVTLFEREANAGGVVKNIIPQFRIPAELIQHDIDFVAAHGVKFEYGCSPDLTIEQLKNQGFHYVLIATGTDKNSGVKLAGDNQNVWKSLPFLREYNKGTALKLGKHVVVVGAGNTAMDCARAALRVPGVEKATIVYRRSLQEMPAWREEYEEALHDGVEFRFLNNPERFDADGTLTLRVMSLGEPDEKGRRRPVETNETVTLLVDSLITAIGEQQDTEALNAMGVPLDKNGWPDVDHNGETRLTDVFMIGDVQRGPSSIVAAVGTARRATDAILSRENIRSHQNDKYWNNVNPAEIYQRKGDISITLVNSDDRDAFVAQEAARCLECNYVCSKCVDVCPNRANVSIAVPGFQNRFQTLHLDAYCNECGNCAQFCPWNGKPYKDKITVFSLAQDFDNSSNPGFLVEDCRVRVRLNNQSWVLNIDSKGQFNNVPPELNDMCRIISHVHQHHHYLLGRVEV”, the “total protein half-life in vivo” value reads like this: under setting [1], 6.26 ± 1.4 h; under setting [2], 5.57 h; under setting [3], 5.57 h; under setting [4], 6.62 h; under setting [6], 2.86 ± 0.32 h; under setting [7], 6.06 h. For the same sequence, the “total protein half-life in vivo” value under setting [9] turned out to be 6.49 h.

On to “MPALDLIRPSVTAMRVIASVNADFARELKLPPHIRSLGLISADSDDVTYIAADEATKQAMVEVVYGRSLYAGAAHGPSPTAGEVLIMLGGPNPAEVRAGLDAMIAHIENGAAFQWANDAQDTAFLAHVVSRTGSYLSSTAGITLGDPMAYLVAPPLEATYGIDAALKSADVQLATYVPPPSETNYSAAFLTGSQAACKAACNAFTDAVLEIARNPIQRA”, for which the “total protein half-life in vivo” value reads like this: under setting [1], 6.04 ± 0.88 h; under setting [2], 4.87 h; under setting [3], 4.39 ± 0.31 h; under setting [4], 4.68 ± 0.094 h; under setting [5], 4.69 ± 0.1 h; under setting [6], 3.11 ± 0.15 h. Besides, the “total protein half-life in vivo” value is, setting by setting: under setting [7], 5.97 ± 0.72 h; under setting [8], 11.95 ± 0.013 h; under setting [9], 4.87 ± 0.41 h; under setting [10], 7.99 h; under setting [11], 6.1512 ± 0.003 h; under setting [12], 11.4 ± 0.5 h.

Consider “MAQVINTNSLSLITQNNINKNQSALSSSIERLSSGLRINSAKDDAAGQAIANRFTSNIKGLTQAARNANDGISVAQTTEGALSEINNNLQRVRELTVQATTGTNSESDLSSIQDEIKSRLDEIDRVSGQTQFNGVNVLAKNGSMKIQVGANDNQTITIDLKQIDAKTLGLDGFSVKNNDTVTTSAPVTAFGATTTNNIKLTGITLSTEAATDTGGTNPASIEGVYTDNGNDYYAKITGGDNDGKYYAVTVANDGTVTMATGATANATVTDANTTKATTITSGGTPVQIDNTAGSATANLGAVSLVKLQDSKGNDTDTYALKDTNGNLYAADVNETTGAVSVKTITYTDSSGAASSPTAVKLGGDDGKTEVVDIDGKTYDSADLNGGNLQTGLTAGGEALTAVANGKTTDPLKALDDAIASVDKFRSSLGAVQNRLDSAVTNLNNTTTNLSEAQSRIQDADYATEVSNMSKAQIIQQAGNSVLAKANQVPQQVLSLLQG”, for which the “total protein half-life in vivo” value under setting [1] was over 8 h; the “total protein half-life in vivo” value under setting [3] is over 8 h; the “total protein half-life in vivo” value under setting [4] is over 8 h; the “total protein half-life in vivo” value under setting [5] was over 8 h; the “total protein half-life in vivo” value under setting [6] turned out to be 0.717 ± 0.2 h; the “total protein half-life in vivo” value under setting [7] was 0.724 ± 0.37 h. Besides, the “total protein half-life in vivo” value by setting is: under setting [8], 0.956 ± 0.59 h; under setting [9], 6.3 ± 0.12 h; under setting [11], over 8 h; under setting [12], over 16 h.

In the case of “MGIKQHNGNTKADRLAELKIRSPSIQLIKFGAIGLNAIIFSPLLIAADTGSQYGTNITINDGDRITGDTADPSGNLYGVMTPAGNTPGNINLGNDVTVNVNDASGYAKGIIIQGKNSSLTANRLTVDVVGQTSAIGINLIGDYTHADLGTGSTIKSNDDGIIIGHSSTLTATQFTIENSNGIGLTINDYGTSVDLGSGSKITTDGSTGVYIGGLNGNNANGAARFTATDLTIDVQGYSAMGINVQKNSVVDLGTNSTIKTNGDNAHGLWSFGQVSANALTVDVTGAAANGVEVRGGTTTIGADSHISSAQGGGLVTSGSDAIINFTGTAAQRNSIFSGGSYGASAQTATAVVNMQNTDITVDRNGSLALGLWALSGGRITGDSLAITGAAGARGIYAMTNSQIDLTSDLVIDMSTPDQMAIATQHDDGYAASRINASGRMLINGSVLSKGGLINLDMHPGSVWTGSSLSDNVNGGKLDVAMNNSVWNVTSNSNLDTLALSHSTVDFASHGSTAGTFATLNVENLSGNSTFIMRADVVGEGNGVNNKGDLLNISGSSAGNHVLAIRNQGSEATTGNEVLTVVKTTDGAASFSASSQVELGGYLYDVRKNGTNWELYASGTVPEPTPNPEPTPAPAQPPIVNPDPTPEPAPTPKPTTTADAGGNYLNVGYLLNYVENRTLMQRMGDLRNQSKDGNIWLRSYGGSLDSFASGKLSGFDMGYSGIQFGGDKRLSDVMPLYVGLYIGSTHASPDYSGGDGTARSDYMGMYASYMAQNGFYSDLVIKASRQKNSFHVLDSQNNGVNANGTANGMSISLEAGQRFNLSPTGYGFYIEPQTQLTYSHQNEMTMKASNGLNIHLNHYESLLGRASMILGYDITAGNSQLNVYVKTGAIREFSGDTEYLLNNSREKYSFKGNGWNNGVGVSAQYNKQHTFYLEADYTQGNLFDQKQVNGGYRFSF”, the “total protein half-life in vivo” value is, setting by setting: under setting [2], over 8 h; under setting [3], 6.81 ± 1.4 h; under setting [4], 5.53 ± 0.71 h; under setting [5], 5.18 ± 1 h; under setting [8], over 16 h; under setting [9], 7.13 h. The “total protein half-life in vivo” value came to 11.6 ± 0.3 h under setting [10], 4.97 ± 1.4 h under setting [11] and 12.5 ± 2.7 h under setting [12].

For “MIAIADILQAGEKLTAVAPFLAGIQNEEQYTQALELVDHLLLNDPENPLLDLVCAKITAWEESAPEFAEFNAMAQAMPGGIAVIRTLMDQYGLTLSDLPEIGSKSMVSRVLSGKRKLTLEHAKKLATRFGISPALFID”, the “total protein half-life in vivo” value turned out to be 4.71 h under setting [1], 1.51 h under setting [2] and 1.85 h under setting [12].

For “MPLSPYLSFAGNCSDAIAYYQRTLGAELLYKISFGEMPKSAQDSAENCPSGMQFPDTAIAHANVRIAGSDIMMSDAMPSGKASYSGFTLVLDSQQVEEGKRWFDNLAANGKIEMAWQETFWAHGFGKVTDKFGVPWMINVVKQQPTQ”, the “total protein half-life in vivo” value is 4.69 ± 0.16 h under setting [1]; 4.35 ± 0.15 h under setting [2]; 5.15 ± 1.1 h under setting [3]; 6.806 ± 0.035 h under setting [4]; 4.57 ± 0.27 h under setting [5]; 3.13 ± 0.35 h under setting [6]. The “total protein half-life in vivo” value runs as follows: under setting [7], 5.29 ± 0.48 h; under setting [8], 10.04 ± 0.096 h; under setting [9], 4.31 ± 0.37 h; under setting [10], 8.56 ± 1.2 h; under setting [11], 5.88 ± 0.59 h; under setting [12], 12.4 ± 0.98 h.
